We go through two sequences from patent publication US20150359911.

The target in this data set is Integrin alpha-v beta-3 (UniProt P06756+P05106). The experiment in a line: filter. The note with it: BzdU replaces dT in the extended strand, HEPES, NaCl, KCl, MgCl2 buffer, 37 C.

As usually defined, the Kd is the equilibrium constant for the complex coming apart. Lower therefore signals a tighter complex.

Sequence of Integrin alpha-v beta-3 (P06756 31-992, chain 1 of 2): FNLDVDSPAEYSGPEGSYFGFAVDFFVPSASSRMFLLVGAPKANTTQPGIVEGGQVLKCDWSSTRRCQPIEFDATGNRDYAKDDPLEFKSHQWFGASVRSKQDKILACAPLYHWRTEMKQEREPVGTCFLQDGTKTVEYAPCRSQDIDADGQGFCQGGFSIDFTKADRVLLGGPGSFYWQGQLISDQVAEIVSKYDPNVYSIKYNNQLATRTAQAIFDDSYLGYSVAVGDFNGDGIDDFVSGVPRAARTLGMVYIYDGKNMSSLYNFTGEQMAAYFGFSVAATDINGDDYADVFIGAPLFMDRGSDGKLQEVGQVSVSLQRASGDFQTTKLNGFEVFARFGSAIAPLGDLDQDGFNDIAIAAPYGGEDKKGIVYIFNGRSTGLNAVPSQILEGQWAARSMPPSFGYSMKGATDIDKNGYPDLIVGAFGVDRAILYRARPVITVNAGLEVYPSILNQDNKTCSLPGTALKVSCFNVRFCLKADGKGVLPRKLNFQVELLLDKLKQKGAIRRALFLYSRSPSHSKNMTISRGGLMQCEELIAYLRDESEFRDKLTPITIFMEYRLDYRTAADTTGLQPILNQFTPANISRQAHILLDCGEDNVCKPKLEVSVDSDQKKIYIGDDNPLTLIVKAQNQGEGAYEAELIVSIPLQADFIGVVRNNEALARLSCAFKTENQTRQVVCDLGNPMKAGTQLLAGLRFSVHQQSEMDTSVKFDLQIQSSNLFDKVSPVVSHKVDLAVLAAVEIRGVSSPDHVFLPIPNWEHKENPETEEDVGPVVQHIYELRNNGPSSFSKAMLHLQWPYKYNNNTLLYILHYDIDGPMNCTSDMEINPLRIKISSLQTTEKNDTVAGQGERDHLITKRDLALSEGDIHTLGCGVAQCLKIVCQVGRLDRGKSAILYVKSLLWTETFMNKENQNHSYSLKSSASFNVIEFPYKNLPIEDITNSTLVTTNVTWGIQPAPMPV
Sequence of Integrin alpha-v beta-3 (P05106 27-718, chain 2 of 2): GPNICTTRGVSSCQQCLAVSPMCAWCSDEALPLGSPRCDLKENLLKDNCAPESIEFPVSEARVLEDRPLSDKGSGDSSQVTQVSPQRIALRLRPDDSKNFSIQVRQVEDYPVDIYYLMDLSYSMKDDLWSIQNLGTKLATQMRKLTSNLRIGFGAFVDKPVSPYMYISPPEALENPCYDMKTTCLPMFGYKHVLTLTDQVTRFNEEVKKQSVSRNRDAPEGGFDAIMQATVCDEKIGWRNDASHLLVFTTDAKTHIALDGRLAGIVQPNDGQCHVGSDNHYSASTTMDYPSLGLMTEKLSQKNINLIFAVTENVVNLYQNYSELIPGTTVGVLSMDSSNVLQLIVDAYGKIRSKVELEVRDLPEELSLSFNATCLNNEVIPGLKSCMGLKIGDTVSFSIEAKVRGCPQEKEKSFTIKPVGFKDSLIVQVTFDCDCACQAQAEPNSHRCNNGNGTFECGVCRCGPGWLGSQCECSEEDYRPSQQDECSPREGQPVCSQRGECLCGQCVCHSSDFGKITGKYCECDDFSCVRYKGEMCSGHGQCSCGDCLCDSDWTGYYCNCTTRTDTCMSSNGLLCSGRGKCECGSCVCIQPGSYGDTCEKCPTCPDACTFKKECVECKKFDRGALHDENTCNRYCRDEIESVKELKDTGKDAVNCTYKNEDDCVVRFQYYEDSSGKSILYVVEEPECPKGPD

For “TCAGCCGCCAGCCAGTTCTGACCAGAGCACCACAGAG [Round 8 SELEX pool]”, the Kd (n = selected N40 region [n positions 19 = modified dU], Bmax 0.45) amounted to 0.0433 µM.
Regarding “TCAGCCGCCAGCCAGTTCTGACCAGAGCACCACAGAG [Starting benzyl-dU random library]”, the dissociation constant (Kd) (n = random N40 [n positions 19 = modified dU], Bmax 3.23E-11, essentially no binding) turned out to be 6.5 µM.
